Experimental data as given in paper PMC2951365 (PLoS ONE, 2010).

Biological target: T1, ubiquitin (Ub) (UniProt P0CG48 1-76)
T1 construct: ubiquitin, the mature 76-residue product of the polyubiquitin precursor; Used 15N-labelled or unlabelled; also called monoUb; 15N-labeled Ub; source: E. coli (pET-3a-Ub), purified (acetic acid denaturation, SP XL column, Superdex-75)
Experiment: NMR titration; 15N-Ub (~0.2 mM) titrated with increasing amount of GB1-tagged UIM peptides; 1H-15N HSQC; 20 mM phosphate, 100 mM NaCl, pH 6.5, 25°C; apparent KD from I13, K48 and L71 of Ub; for AT3-UIM12 a simplified 1:2 fit with the two UIM motifs binding Ub equally
Conditions: both partners purified

- Kd: > 3000 µM
B1: GB1-fused AT3-UIM3 (residues 335-354) (domain or fragment)
chain: SEEDMLQAAVTMSLETVRND
modifications: GB1 carrier and C-terminal His6 left out. The template's polyQ length is not printed. The printed limits are applied to the 361-aa UIM3-containing form, where they span the whole UIM3 and correspond …
